# In US20210130436A1:
# Several values for one entry are separate records, joined by “and”; a condition that tells them apart may be missing. Identical values can stand only once.
# Key:
# [1] = biological target: CD28, endogenously expressed on Jurkat/IL2 reporter cells (human) (UniProt P10747); assay: flow cytometry, Jurkat/IL2 reporter cells (endogenous CD28)
# [2] = biological target: human CTLA4 (full-length, expressed on CHO cells) (human) (UniProt P16410); assay: flow cytometry, CHO cells expressing huCTLA4, PE anti-human Fc
# [3] = biological target: human CD28, full length, expressed on transfected HEK293 cells (human) (UniProt P10747); assay: flow cytometry, HEK293 cells transfected with human CD28
# [4] = biological target: human CD28, endogenous on Jurkat/IL2 reporter cells (human) (UniProt P10747); assay: flow cytometry, Jurkat/IL2 reporter cells (endogenous CD28), PE anti-human Fc
# [5] = biological target: PD-L1 (human) (UniProt Q9NZQ7); assay: cell-based or functional assay
# [6] = biological target: PD-L1 (human) (UniProt Q9NZQ7); assay: flow cytometry on CHO cells stably expressing PD-L1
# [7] = biological target: PD-L1 (human) (UniProt Q9NZQ7); assay: flow cytometry, CHO cells stably expressing huPD-L1, 33.3 nM, PE anti-human Fc
# [8] = biological target: PD-L1 (human) (UniProt Q9NZQ7); assay: flow cytometry, CHO cells stably expressing PD-L1
# [9] = biological target: CD28, endogenously expressed on Jurkat/IL2 reporter cells (human) (UniProt P10747); assay: flow cytometry on Jurkat/IL2 reporter cells (endogenous CD28); PE anti-human Fc
# [10] = biological target: T1, CD96 (UniProt P40200); assay: flow cytometry on cells expressing the target, 20 nM Fc fusion
# T1 sequence (looked up): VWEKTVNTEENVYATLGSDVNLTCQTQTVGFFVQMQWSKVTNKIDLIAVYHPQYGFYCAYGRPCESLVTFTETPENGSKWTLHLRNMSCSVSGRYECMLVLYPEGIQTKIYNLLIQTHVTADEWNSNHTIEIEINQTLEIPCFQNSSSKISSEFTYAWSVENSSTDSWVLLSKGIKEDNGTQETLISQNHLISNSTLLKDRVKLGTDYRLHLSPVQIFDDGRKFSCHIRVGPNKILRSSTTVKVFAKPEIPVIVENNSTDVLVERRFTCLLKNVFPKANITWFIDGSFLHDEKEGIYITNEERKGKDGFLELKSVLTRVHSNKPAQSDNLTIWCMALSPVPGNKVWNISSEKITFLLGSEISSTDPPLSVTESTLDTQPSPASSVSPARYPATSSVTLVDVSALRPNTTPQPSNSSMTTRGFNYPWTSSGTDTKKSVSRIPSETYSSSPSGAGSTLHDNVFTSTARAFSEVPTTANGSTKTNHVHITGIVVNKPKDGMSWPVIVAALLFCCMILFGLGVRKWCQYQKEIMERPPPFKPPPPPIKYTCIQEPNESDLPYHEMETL
# [11] = biological target: human PD-L1 on CHO cells (human) (UniProt Q9NZQ7); assay: cell-based or functional assay
# [12] = biological target: CD28, endogenously expressed on Jurkat/IL2 reporter cells (human) (UniProt P10747); assay: flow cytometry, Jurkat/IL2 reporter cells (endogenous CD28), PE anti-human Fc
# [13] = biological target: human CTLA4, full-length, expressed on transfected HEK293 (Expi293F) cells (human) (UniProt P16410); assay: flow cytometry, Fc control on HEK293 cells transfected with full-length human CTLA4
# [14] = biological target: human PD-L1, full-length, expressed on transfected HEK293 (Expi293F) cells (human) (UniProt Q9NZQ7); assay: flow cytometry, Fc control on HEK293 cells transfected with full-length human PD-L1
# [15] = biological target: human CD28, full-length, expressed on transfected HEK293 (Expi293F) cells (human) (UniProt P10747); assay: flow cytometry, Fc control on HEK293 cells transfected with full-length human CD28
# [16] = biological target: PD-1 (Homo sapiens (Human)) (UniProt Q15116); assay: flow cytometry on Jurkat/PD-1 cells, 50 nM
# PD-1 (Homo sapiens (Human)), sequence (Q15116 21-288): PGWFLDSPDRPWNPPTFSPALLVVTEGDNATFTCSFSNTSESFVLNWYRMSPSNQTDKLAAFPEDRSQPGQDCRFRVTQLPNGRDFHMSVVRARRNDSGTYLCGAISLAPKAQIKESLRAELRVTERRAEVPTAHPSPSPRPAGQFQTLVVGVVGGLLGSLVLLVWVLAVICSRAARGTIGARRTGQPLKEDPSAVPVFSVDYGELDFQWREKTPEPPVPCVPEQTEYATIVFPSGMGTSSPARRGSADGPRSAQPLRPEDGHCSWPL
# PD-L1 (human), sequence (Q9NZQ7 19-290): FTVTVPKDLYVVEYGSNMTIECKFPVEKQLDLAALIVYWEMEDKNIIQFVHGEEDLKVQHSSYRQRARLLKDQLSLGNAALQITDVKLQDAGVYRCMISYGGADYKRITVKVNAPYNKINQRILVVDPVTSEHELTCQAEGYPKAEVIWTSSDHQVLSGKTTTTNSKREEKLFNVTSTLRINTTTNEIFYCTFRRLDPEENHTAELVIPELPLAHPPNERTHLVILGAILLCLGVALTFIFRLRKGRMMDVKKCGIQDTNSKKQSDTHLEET
# human CTLA4 (full-length, expressed on CHO cells) (human), sequence (P16410 36-223): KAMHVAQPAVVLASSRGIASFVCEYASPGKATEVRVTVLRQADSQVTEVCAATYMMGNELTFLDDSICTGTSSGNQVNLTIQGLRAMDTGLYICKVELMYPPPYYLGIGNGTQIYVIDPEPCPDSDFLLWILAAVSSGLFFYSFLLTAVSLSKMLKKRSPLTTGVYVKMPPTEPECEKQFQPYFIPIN
# human PD-L1 on CHO cells (human), sequence (Q9NZQ7 19-290): as the sequence (Q9NZQ7 19-290) above
# human PD-L1, full-length, expressed on transfected HEK293 (Expi293F) cells (human), sequence (Q9NZQ7 19-290): as above
# human CTLA4, full-length, expressed on transfected HEK293 (Expi293F) cells (human), sequence (P16410 36-223): as the sequence (P16410 36-223) above
substance,measurement,setting,value
variant CD80 IgV-Fc E24D/E35D/M47L/V68M/E95V/L97Q (from UniProt P33681 35-141) (Fc fusion),MFI at 33.3 nM,[1],15 MFI
variant CD80 IgV-Fc Q33L/E35D/M47I (from UniProt P33681 35-141) (Fc fusion),MFI at 33.3 nM,[2],15900 MFI
variant CD80 IgV-Fc Q33R/E35D/M38I/M47L/V68M (from UniProt P33681 35-141) (Fc fusion),MFI at 33.3 nM,[1],15 MFI
variant CD80 IgV-Fc N55I/T57I/I69F (from UniProt P33681 35-141) (Fc fusion),MFI at 66.6 nM,[3],1900 MFI
variant CD80 IgV-Fc Q33L/E35D/T41S/M47V (from UniProt P33681 35-141) (Fc fusion),MFI at 33.3 nM,[2],14500 MFI
variant CD80 IgV-Fc A26E/E35D/M47L/L85Q (from UniProt P33681 35-141) (Fc fusion),MFI at 66.6 nM,[3],2270 MFI
variant CD80 IgV-Fc Q33K/E35D/D46V/L85Q (from UniProt P33681 35-141) (Fc fusion),MFI at 33.3 nM,[2],8510 MFI
variant CD80 IgV-Fc E35D/K37E/M47V/N48D/L85Q/D90N (from UniProt P33681 35-141) (Fc fusion),MFI at 33.3 nM,[4],1590 MFI
variant CD80 IgV-Fc E35D/M47L/A71G/L85Q (from UniProt P33681 35-141) (Fc fusion),MFI at 33.3 nM,[4],1440 MFI
"wild-type CD80 ECD-Fc (inert), Example 15 (from UniProt P33681 35-242) (Fc fusion)","RLU, Jurkat/IL2 + CHO/OKT3/PD-L1 Reporter Assay, CD80 Conc 5.0 nM",[5],159 RLU
same,MFI at 33.3 nM,[6],161 MFI
WT CD80 ECD-Fc (from UniProt P33681 35-242) (Fc fusion),MFI at 33.3 nM,[7],68 MFI
same,MFI at 33.3 nM,[8],52 MFI
same,"Jurkat/IL2 + CHO/OKT3/PD-L1 reporter assay, RLU at CD80 Conc 5.0 nM",[5],521 RLU
variant CD80 IgV-Fc E35D/M42V/M47V/E52D/L85Q (from UniProt P33681 35-141) (Fc fusion),MFI at 33.3 nM,[9],1290 MFI
CD112 A112V IgV-Fc (from UniProt Q92692 32-158) (Fc fusion),MFI at 20 nM,[10],1210 MFI and 1180 MFI
variant CD80 IgV-Fc deltaE10-A98 (Fc fusion),Fold Increase over WT CD80-IgV-Fc,[11],0.3 fold
same,"Jurkat/IL2 + CHO/OKT3/PD-L1 Reporter Assay: Relative Luciferase Units (RLU), CD80-Fc Conc 5.0 nM",[11],137 RLU
variant CD80 IgV-Fc Q33L/E35D/T41S/M43I (from UniProt P33681 35-141) (Fc fusion),MFI at 33.3 nM,[12],433 MFI
Fc only,MFI at 66.6 nM,[13],5960 MFI
same,MFI at 22.2 nM,[14],4740 MFI
same,MFI at 66.6 nM,[15],2590 MFI
PD-L1 A33D/S75P IgV-Fc (first entry) (from UniProt Q9NZQ7 19-132) (Fc fusion),Fold increase over wildtype PD-L1 IgV-Fc,[16],0.1 fold
same,MFI at 50 nM,[16],306
variant CD80 IgV-Fc E35D/Y53H/A71G/D90G/L97R (from UniProt P33681 35-141) (Fc fusion),MFI at 33.3 nM,[9],1550 MFI
variant CD80 IgV-Fc E35D/D46E/M47V/N63D/L85Q (from UniProt P33681 35-141) (Fc fusion),MFI at 33.3 nM,[4],1330 MFI
